{"source": "the DeepSol protein solubility set"}
{"assay": "soluble on expression in E. coli; label from the status in PepcDB or PDB records"}
{"sequence": "MSSDKSIEKNTDTIASEVHEGDNHSNNLGSMEEEIKSTPSDQYEEIAIIPTEPLHSDKELNDKQQSLGHEAPTNVSREEPIGISGDEDTQITEQNVNEQRQETREPSSEIDLNEPLDVEKDVTTDVQAPNGLNIEKEYDAVKENEKVYADTKEVVSSPENREVTGKNSGGEKSSSSKFLDDESGTTTAANANDISISSEVTPERSSENDNNQIHITNEVAAGINLNENKEQKAAIEDGPVTAENLSSETARKVPPIPTQIINEKGDNSSENEVSAIPTTSSPPLPPRQNVATSTSPKLPPRGKQREQPPKTKNAVPPPLEEEMKSEKFRKNFEETKRNSYHHVPLTGSKTAQLESTAEINLIASRYRKTSHHLNKEGEETRESLQEGQSFLKSTFTSFLENLSEYNEVENVNEEDREMFKIDWSFWTQVVNDYATVASNEPENLEAHVTNGIPPQIRGIIWQLMANSKSREMEDIYETLLDTECLHEATIRRDLRRTKFVAEDKMESLYKVIKVYSVYDPDVGYTQGMGFIAAPLLINCENEAESFGLLVGLMKNYGLRELFLPGMPGLMLMLYQFDRLLEEHSPSLYNRLIREGISSTMYATQWFLTFFAYKFPLEFVLRIFDIVFVEGIEVLLKFAVNLMLKNEETLVKLRFDELLDFLKDELFNYYLMGNQDDASVVQMGLSNGNSFKGNDDGTFSYNVDLFVHDAMTGVYITPLTLRRYRGEYVEIHEKEQKKEDHYESLRIQNHQLQREAQKLEHDYSILNKENISAANELIQNRLNMEMLLDEKNDLINTITDIKSQIEEEIRKQNLPNPDASLPKADLREDLERTISRNNEVMRENGQLEERITELQAEIDELININKEQVSTASLLERDSKAKGRKGWTGFKKVFK", "soluble on expression in E. coli": "soluble"}
{"sequence": "MGKVPEEVRSYLMEAHSLAGQWSLPNDRGDHTNSEAYDVNSVAIIGGGTMGKAMAICFGLAGIETFLVVRNEQRCKQELEVMYAREKSFKRLNDKRIEKINANLKITSDFHKLSNCDLIVESVIEDMKLKKELFANLENICKSTCIFGTNTSSLDLNEISSVLRDPSNLVGIHFFNPANVIRLVEIIYGSHTSSQAIATAFQACESIKKLPVLVGNCKSFVFNRLLHVYFDQSQKLMYEYGYLPHQIDKIITNFGFLMGPMTVADMNGFDVMEKLKKENGLEPNPIEKEMWRLKRYGRKTNKGFYKYDDKTQRKENDTEMEQIIRRVSQNAKSNIQIINDQDVINFMLYPTVNEGYRCIEEGVISNESLIDIMFILGFGWPIHSGGPMRFGKTEGLDKIANMLVHWSSLEPKESAYIVADALKTANNKLMSSKL", "soluble on expression in E. coli": "soluble"}
{"sequence": "ADVSAAVGATGQSGMTYRLGLSWDWDKSWWQTSTGRLTGYWDAGYTYWEGGDEGAGKHSLSFAPVFVYEFAGDSIKPFIEAGIGVAAFSGTRVGDQNLGSSLNFEDRIGAGLKFANGQSVGVRAIHYSNAGLKQPNDGIESYSLFYKIPI", "soluble on expression in E. coli": "soluble"}
{"sequence": "MSLDGQEAAGILERARASVDPELRRAVDSLPGSMRRIALHHFGWEHADGTPAAGNAGKAIRPALVLAAVRALGGPQSSAVRAAAAVELIHNFTLLHDDVMDRDTTRRHRPTAWTVFGDADAILAGDALQALAHRLLAEDPHPASAAAAARLAACVIELCAGQHADTAMERRGPGEVTLDECLAMAEAKTGALLGCACALGALYAGAEEEDVEALDAFGREAGLAFQLIDDVIGIWGDPSRTGKPAGADLMARKKSLPVVAALAAGTPAAAELAELYAVPHQEGELERTVLAVERAGGRDWAQQQAADRMARAMHELSRAIPDPEAAGGLLALAEFVTRRSNEGHHHHHH", "soluble on expression in E. coli": "soluble"}
{"sequence": "MKSVGLITEYNPFHNGHQYHINQSKKLTNADVTIAIMSGNFVMRGEPAIYNKFTRAKMALSTADLVIELPATASLSSGDHFAELAVKVADYMSVDTIAFGSENNDIKTLKQLAHSINEIEQSESFSQKVKEGKSYPRIISELLEHHEALASPNNILGISYLKAIAKNAKNINAISIKRENAQHHDSLIQHHQFASGTSIRTSIISQDDHWHHVVPKDIQHLYVTPHITLNQIFPYLKYQIIAMTTDSLKNIYTVTEGFENRLKSNIYEATDFHHFVKLLKTKRYTYTHIQRLLMNVLLNIKPTDVTSNIHAVKVLAMNDRGRQYLKHLKTAFPERQYITNINKSNAHYFTNEIKATHIYNAISGQQQTDFNTPVIQQYR", "soluble on expression in E. coli": "not soluble"}
{"sequence": "MKKNFFSDLPEETIVNTLSFLKANTLARIAQTCQFFNRLANDKHLELHQLRQQHIKRELWGNLMVAARSNNLEEVKKILKKGIDPTQTNSYHLNRTPLLAAIEGKAYQTANYLWRKYTFDPNFKDNYGDSPISLLKKQLANPAFKDKEKKQIRALIRGMQEEKIAQSKCLVC", "soluble on expression in E. coli": "not soluble"}
{"sequence": "MGSDKIHHHHHHMKTRQEALDYGLSFPNTYQEAPFHDPNWQLIRVKDSKKVFLWTYERNGFINLNVKVSPAWRDFWRDAFPSVIPGWHQNKDNWNTIILDGSIPDDAIKNMISDSYDLVTYNPTRLIYEAVKRIPKGCVATYAQVAELAGNKKMCRAVGNALHKNPNPDEIPCYRVVNAKGELSGAFAFGGADEQANRLRADGIEVIDGRVDLDKYGIRIVDDVIYTKTTVEPLT", "soluble on expression in E. coli": "not soluble"}
{"sequence": "MDDRRPQLTEEQLLFRIALTHVKGVGSVLARQLLSAMGSPEAIFSDRKELVQRLPKAPRRLLDAIFSPSVMEEARRKLDQALKAGLNMYFITDDNYPYRLKECVDAPILLYSKGNVDLSPRRVLSIVGTRNITAYGRTATERIVSGLAETIPDLLIVSGLAYGVDVAAHKAALDNGLPTVAVLAHGLDRIYPSGHRSIAMEMLRNGGLLTDYPMGTEPERFNFVGRNRIVAGLSDATLVIESAEKGGSLITAGLAFGYNREVLALPGRATDSRSAGCNALIRDQKAALVSSAQDVLTLLDWSSTIDAKPQTLNFRPDSWPDTPVAECLLRAGTASVDELTRATGLPINDVSAQLFDLELDGLVQSQPGGIYSVI", "soluble on expression in E. coli": "not soluble"}
{"sequence": "MAMHPRKDWYELTRATNWTPSYVTEEQLFPERMSGHMGIPLEKWESYDEPYKTSYPEYVSIQREKDAGAYSVKAALERAKIYENSDPGWISTLKSHYGAIAVGEYAAVTGEGRMARFSKAPGNRNMATFGMMDELRHGQLQLFFPHEYCKKDRQFDWAWRAYHSNEWAAIAAKHFFDDIITGRDAISVAIMLTFSFETGFTNMQFLGLAADAAEAGDYTFANLISSIQTDESRHAQQGGPALQLLIENGKREEAQKKVDMAIWRAWRLFAVLTGPVMDYYTPLEDRSQSFKEFMYEWIIGQFERSLIDLGLDKPWYWDLFLKDIDELHHSYHMGVWYWRTTAWWNPAAGVTPEERDWLEEKYPGWNKRWGRCWDVITENVLNDRMDLVSPETLPSVCNMSQIPLVGVPGDDWNIEVFSLEHNGRLYHFGSEVDRWVFQQDPVQYQNHMNIVDRFLAGQIQPMTLEGALKYMGFQSIEEMGKDAHDFAWADKCKPAMKKSA", "soluble on expression in E. coli": "soluble"}
{"sequence": "MPGKLTATILTRNEAANIGDCIDSLAQLADEVIVLDSGSTDATRDIARARGANVIEDDGPWPGFGPQKNRALDRATGEWVLSIDADERVPPELAQEIRTAMARADADAYAIPRLSQFCGAWVHHSGWRPDHVIRLFRRGKARFSENLVHESLQVTGNVARLRTSLLHYSYTSMDQVHRKSAQYAEAGARDLTQRGKHIGALSPVLHGTWAFVRTLVLRRGFLDGGTGLAIARMNATVSYRKYRRARELASGANHRPLEHHHHHH", "soluble on expression in E. coli": "not soluble"}
{"sequence": "MSLKLFPQFDGISLKDRFFLLESFKVDVLANNVYYTESSLVPFLSKMKGVLARDGNIKHYLAEGKRICVLGDVHGSPMDVSAFYDLCMLKDVQLQCFQEVGDDRGSQFTMDLSSVYVFLGDYVDRGSRGLACVLFIYVLKYLYPRNVLLLRGNHECDAMNRIYGFTKEIYKYYGSHSPIYQAIQDTFAAIPYFFRLIYLPQSLCRALERFCNRVIPSASSSTRWTNSEIMCLASMVSSVTSWAGQAGATNEAKLDDLADSQEAHMLKCRLEEESLTIFCCHGGPPCVYTEYGRQLDLYLGIDSYENILQRSLTIVDPLAGELTWNDPAPHRFKSPSTLYEPSQRRLGYRYSYDLFRTWCKHTGVDLVLRGHEVALDGVHQDFQYAFEPKQLGGPNQELEYWFSVSTLRETPRHFTVFSSSFYEHLTNHGAAAIIRFEVPVDGVAPALVIRCFTLSEGHHHHHH", "soluble on expression in E. coli": "not soluble"}
{"sequence": "MKVIEFHQVSKWYGQFQALKSISLTVNKGEIVVICGPSGSGKSTLIRTVNGLESIDSGEIIVLPELDERTRRSGKIGMVFQHFNLFPHLTVLENLTLAPIRTLKLSAQEAKERAYHFLQRVKITDQTHKYPIQLSGGQQQRVAIARSLCMQPEILLFDEPTSALDPETINEVLEVMVDLAQDGITMMCVTHEMGFARKVAHRVMFMDEGEILEVGSPEQLFQNPTHPRTQQFLNQILSH", "soluble on expression in E. coli": "not soluble"}
{"sequence": "MAHHHHHHMRRVRLSPPLLRFPGSLFPKKNLFSKAIPLAIQTCRLFVSYSEPSYYYYYYYHNSCMCEVIRSARDSAERMGFGEGWGVCGASTRRQHRVGLFSSGSSSEHLPCMKGWSGRKDVSLIYAYHTCLLHFLLLHTCV", "soluble on expression in E. coli": "not soluble"}
{"sequence": "MSLEWCKNRLEITGRSVFVDIMQQWVTGEEVPLYRHAIQQSIRLFLAGCAGILKPVKCMEYPPFPRLVSHGTGSAVASNLAFQHWLDLLLKDAVLDGDTIRQIDRIYLQSGIASVKWETIPEGARQIITQLMARQYPDWFGVASWSSHINGADCWTKLGVMQEHACNCDMLMIIPTRLAIELNGNSQLLTGVSTTHDLYSHLYGMAWPSGQNIIWQRDRINSLRLDFDSPSYPPSAELMGELSAVFDCEIRHWYQEPVNGIRGYDCYDRGDHVDSGEYGAGPFLPPLKVEEVTVNGQEEAAEGHHHHHH", "soluble on expression in E. coli": "soluble"}
{"sequence": "MGSDKIHHHHHHMRRDTFAGRRTQQPACQIHRFARTDKCYRHQKNPAERRHFGLSQCPHRESIVFVYTKMYILLMDVDRVQVRAFRANIAEYLEQALQGQRIVIERHGGPVAALVPLADLYQITRKEKAMGHRIALNNVSGGEGKTFLTFHLAFALADLGFRVAVLDCDPQASLTKRFGLHDEEGAHQSGAETILPVFEVDDDPALPSPVTVEGIDVWPANRQLIDADTRIMTNMMRLGNLGEALDRIQDQYDFILLDTRPNVSPLLTASTAAARLFLVPIGAHKGLENLDELLRLVKLARKQDRSARIAFFIPNKVTSTRMGKNVLQSISAYTEVAPISPPVRQATIGPEAELFRTGITRHAPKSPLAGDIRTLANALVKATEQVEDAQ", "soluble on expression in E. coli": "not soluble"}
{"sequence": "GSHSLRYFDIAVSRPGLGEPRYISVGYVDDTEFARYDSDAENRRYQPRARWMEREGPEYWERNTPIYKGKEQTFRVNLRTLRGYYNQSEGGSHTIQEMYGCDVGSDGSLLRGYEQFAYDGRDYIALNEDLKTWTAADFAARISRNKLERDGFADLHRAYLEGECVESLRRYLELGKETLLRSDPPKAHVTLHPRPEGDVTLRCWALGFYPADITLTWQLNGEDLTQDMELVETRPAGDGTFQKWASVVVPLGKEQNYTCRVEHEGLPKPLSQRWEPLEHHHHHH", "soluble on expression in E. coli": "soluble"}
{"sequence": "MTVPYETAKAALLEAAMMHVPFDGWSETTFQAAARDAELSPSVARAICPRGAVDLAIAFHKAGDAAMLDRLAETDLSAMKFRDKVTAAVRIRLEVIEDKEAVRRGTTLFALPMYAADGAKLIWGTCDAIWTTLGDTSDDVNWYTKRATLSGVYSSTVLYWLGDDSPDHMATWGFLDRRIENVMAIEQVKAKVRQSPTLSRLMTGPNWLLSQIKAPRITPKTDLEHHHHHH", "soluble on expression in E. coli": "soluble"}
{"sequence": "MGSDKIHHHHHHMTLEQLLMFNTVALAGSLKAASDKLHKTQPAISQSIKQLESQLDVVLFDRQGYRLALTQEGRKLLQYAQRVLNEAQEMRQVAKHLAIGNEASITLAFEASFNLARILPMLERTQLEFPHTQIILKQEYLTGALEALNQGKADIAISAGGIESMRSNHFELGFLFSGSLLDVASPRLLSRYPSLSHVKELVNEYQIVIQDTGTGTANIEFGVQAGQRRWYVNDFYTKKMLIQSGMGWGKLPYYMVEEALANGSLHPLELKERQNLIQLDYYVMRRPQSPLGPVAQALWENLVQLATKQS", "soluble on expression in E. coli": "not soluble"}
